The source of these data is US20260374857 (published 2026).

Like-named read-outs stand apart in the source and are kept apart here.

Test [1] addresses T1, GnRH Bio-peptide 1 (not fully specified).
T1 chain: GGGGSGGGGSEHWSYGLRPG
In words: ELISA. On the technique in general: ELISA stands for enzyme-linked immunosorbent assay.

Test [2] concerns the target T2, GnRH Bio-peptide 2 (not fully specified).
T2 chain: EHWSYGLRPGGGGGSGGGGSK
Put plainly: ELISA.

Test [3] addresses T1, GnRH Bio-peptide 1. In words: ELISA.
Test [4] concerns the target T1, GnRH Bio-peptide 1. Put plainly: ELISA.
Test [5] deals with T1, GnRH Bio-peptide 1. Put plainly: ELISA.
Test [6] concerns the target T1, GnRH Bio-peptide 1. In words: ELISA.
Test [7] deals with T1, GnRH Bio-peptide 1. In words: ELISA.
Test [8] deals with T2, GnRH Bio-peptide 2. Put plainly: ELISA.
The target of test [9] is T1, GnRH Bio-peptide 1. Put plainly: SPR. Background: Surface plasmon resonance follows binding to a sensor surface in real time, without labels.
Test [10] deals with T2, GnRH Bio-peptide 2. Put plainly: SPR.
Test [11] has as its target T1, GnRH Bio-peptide 1. In words: ELISA.

B1: Clone 9 (pGnRH-009) (antibody, V domains shown)
VH: EVQLVESGGGLVQSGGSLGLSCAASGRTFSGYAMGWFRQAPGKEREFVAAIRWSGGSTSYADSVKGRFTISRDNAKNTVYLQMNSLKPEDTAVYYCAADRGPSGSYYYPDYWGQGTQVTVSS
The EC50 is the concentration needed to bring the measured effect to its halfway point. A low value points to greater potency. As for B1, the figures for the EC50 with GnRH Bio-peptide 1 [1], with GnRH Bio-peptide 2 [2] and with GnRH Bio-peptide 1 [3] were 8.16 nM, 0.36 nM and 14.4 nM, respectively.

B2: 09Tm1 (antibody, V domains shown)
VH: DVQLVESGGGLVQPGGSLRLSCAASGRTFSGYAMGWFRQAPGKEREFVAAIRWSGGSTSYADSVKGRFTISRDNAKNTVYLQMNSLKPEDTAVYYCAADRGPSGSYYYPDYWGQGTQVTVSS
Take B2: the EC50 worked out at 0.99 nM with GnRH Bio-peptide 1 [1] and 1.91 nM with GnRH Bio-peptide 2 [2].

B3: 09Tm2 (antibody, V domains shown)
VH: DVQLVESGGGLVQPGGSLRLSCAASGRTFSGYAMGWFRQAPGKEREFVAAIRFSGGSTSYADSVKGRFTISRDNAKNTVYLQMNSLKPEDTAVYYCAADRGPSGSYYYPDYWGQGTQVTVSS
B3: the figures for the EC50 with GnRH Bio-peptide 1 [1] and with GnRH Bio-peptide 2 [2] were 1.37 nM and 1.99 nM, respectively.

B4: Clone 9 Ala scanning 1 (antibody, V domains shown)
VH: EVQLVESGGGLVQSGGSLGLSCAASGRTFSGYAMGWFRQAPGKEREFVAAIRWSGGSTSYADSVKGRFTISRDNAKNTVYLQMNSLKPEDTAVYYCAAARGPSGSYYYPDYWGQGTQVTVSS
As to B4, in the test with GnRH Bio-peptide 1 [4], the binding result is recorded as “no binding”.

B5: Clone 1 (pGnRH-001) (antibody, V domains shown)
VH: QVQLVESGGGLVQAGGSVRLSCTASGRTFNNYVLGWFRQTPGKEREFVAAIRGTGSTTHADSVKGRFTISRDNAKNTVYLQMNSLKPEDTAVYYCAADDAYYPGNLRPQYWGQGTQVTVSS
By Kd is commonly meant the constant that tells how readily two partners part at equilibrium. Turning to B5, the EC50 is 0.41 nM with GnRH Bio-peptide 1 [5]; 4 nM in the test with GnRH Bio-peptide 1 [6]; 1.27 nM with GnRH Bio-peptide 1 [7]; 0.3 nM with GnRH Bio-peptide 2 [8]; 14 nM with GnRH Bio-peptide 1 [11]. Further, the Kd amounted to 13.5 nM in the test with GnRH Bio-peptide 1 [9] and 7.1 nM with GnRH Bio-peptide 2 [10].

B6: Clone 19 (pGnRH-019) (antibody, V domains shown)
VH: QVQLVESGGGLVQAGGSLRLSCTASGRTFNNYVLGWFRQTPGKEREFVAAIRWTGSNTHADSVKGRFTISRDNAKNTVYLQMNSLKPEDTAVYYCAADDAYYPGNLRPQYWGQGTQVTVSS
Molecule B6 came in with an EC50 with GnRH Bio-peptide 1 [11] of 415000 nM.
